Measurements from patent publication US20020193329A1 (published 2002).

Target: T1, Her-2/neu peptide on HLA-B*44:02 (human)
T1 peptide: EEYLVPQQGF
Test: cytokine release
Description: This example describes the charaterization of the epitope recognized by one of the T cell clones described above, 17D5. This clone recognized APC expressing the ICD or full-length Her-2/neu protein. The HLA-restriction element for the clone was determined to be HLA-B4402 by using a panel of allogenic cell lines matched at various HLA alleles with the T cell clone as APC in gamma interferon Elispot assays. This was confirmed by transduction of HLA-B44-negative, Her-2/neu-positive APC with a B4402-recombinant retrovirus to confer recognition. The region of the ICD recognized by the clone was narrowed by using recombinant retroviruses expressing a series of five fragments of the ICD to transduce B44+APC. […] Predicted B44-binding 9 mer and 10 mer peptides from within this fragment were chosen and synthesized. Of the 13 peptides synthesized, one was recognized by the clone and determined to be the epitope. […] The sequence of this naturally processed Her-2/neu epitope is: […] (SEQ ID NO: 3), position 1021-1030 in the Her-2/neu protein sequence.

B1: TCR of the 17D5 T cell clone (TCR, V domains shown)
Valpha: AQSVAQPEDQVNVAEGNPLTVKCTYSVSGNPYLFWYVQYPNRGLQFLLKYITGDNLVKGSYGFEAEFNKSQTSFHLKKPSALVSDSALYFCAVRPNSGYSTLTFGKGTMLLVSP
Vbeta: EAQVTQNPRYLITVTGKKLTVTCSQNMNHEYMSWYRQDPGLGLRQIYYSMNVEVTDKGDVPEGYKVSRKEKRNFPLILESPSPNQTSLYFCASSLDWGGLAGGLGTDTQYFGPGTRLTVL
B1: recognises.
